T1: mouse CD47-Fc (mouse, UniProt Q61735 19-140, limits assumed)
T1 construct: Recombinant CD47-Fc; also called mCD47-Fc; mCD37-Fc [sic]; not shown: Fc part
T1 sequence (looked up): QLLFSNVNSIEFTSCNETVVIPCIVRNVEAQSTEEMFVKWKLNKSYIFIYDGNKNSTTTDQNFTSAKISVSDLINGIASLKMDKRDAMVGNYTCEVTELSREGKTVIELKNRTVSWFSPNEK


Assays:
[1] = target: T2, cynomolgus monkey CD47 on transfected CHO-K1 cells (cynomolgus monkey, UniProt A0A5F8AK49 19-323 (rhesus entry)); test: flow cytometry, cyno CD47-transfected CHO-K1, FIG. 6
T2 construct: whole, on cells; also called cyno CD47+ cells
Description: (§1) FIG. 6A-FIG. 6C. Flow cytometric binding to human and cyno CD47+CHO-K1 cells. Commercial anti-CD47 antibody MS1991, human IgG1 (“I IgG1”) and IgG4 (“I IgG4”) Isotype controls, lead library-derived IgGs in both IgG1null (“IgG1N”) and IgG4(S228P) formats were examined for specific binding on cyno-transfected CHO-K1 cells (FIG. 6A), human-transfected CHO-K1 cells (FIG. 6B), and wild type (wt, i.e. untransfected) CHO-K1 cells (FIG. 6C). IgGs were tested at concentrations ranging from 24-100,000 ng/ml. Concentration-dependent binding was observed against both human and cyno cell lines for all CD47-specific antibodies but not Isotype controls.
(§2) Antibodies to CD47 were analysed for concentration-dependent binding at the cell surface via flow cytometry. CHO-K1 cells were stably transfected with either human, mouse or cyno CD47 full-length cDNAs. Anti-CD47 IgGs mVH/mVL, VH-A1/VL-B1, A-D5, G-B6, F-E7 and D-H3, and an isotype control IgG1 were then all tested in IgG1null and IgG4(S228P) formats, alongside a commercial mouse anti-human CD47 monoclonal MS1991, over a concentration range of 100,000-24 ng/ml for binding to human, cyno or wild type control (‘wt’, i.e. untransfected) CHO-K1.

[2] = target: T3, human CD47 on cells (human CD47-transfected CHO-K1; HL60) (human, UniProt Q08722 19-323); test: flow cytometry, human CD47-transfected CHO-K1, FIG. 6
T3 construct: whole, on cells; also called human CD47+ cells; human CD47+HL60 cells
Description: as §1, §2

human CD47-Fc [3] = target: T4, human CD47-Fc (human, UniProt Q08722 19-139); test: direct specificity ELISA, IgG 1 µg/ml, FIG. 5
T4 construct: Recombinant CD47-Fc; also called hCD47-Fc; not shown: Fc part
Source text: (§3) FIG. 5A-FIG. 5G. Binding specificity analyses for prioritized lead clones. Off-target homologue binding risk for mVH/mVL in IgG1 (FIG. 5A) and IgG1null (FIG. 5B) format and library-derived leads A-D5 (FIG. 5C), VH-A1/VL-B1 (FIG. 5D), F-E7 (FIG. 5E), D-H3 (FIG. 5F), and G-B6 (FIG. 5G) in IgG1null format was examined by direct ELISA on CD47-Fc orthologs and a panel of 14 human immunoglobulin superfamily proteins as labelled on each X-axis (“B” refers to blank). Binding to human, cyno and murine CD47-Fcs (h/c/mCD47-Fc) was performed at an IgG concentration of 1 μg/ml. Binding to all other proteins was performed at an IgG concentration of 10 μg/ml.
(§4) To ensure that that lead clones had not suffered from loss of target specificity during the mutation and reselection process; lead and control IgG1 clones were tested for binding to a panel of 14 purified human proteins from the immunoglobulin superfamily (FIG. 5).

[4] = target: T5, cynomolgus monkey CD47-Fc (cynomolgus monkey, UniProt A0A2K5X523 19-139); test: direct specificity ELISA, IgG 1 µg/ml, FIG. 5
T5 construct: Recombinant CD47-Fc; also called cyno CD47-Fc; cCD47-Fc; not shown: Fc part
Source text: as §3, §4

mouse CD47-Fc [5] = target: T1, mouse CD47-Fc; test: direct specificity ELISA, IgG 1 µg/ml, FIG. 5
Source text: as §3, §4

human CD47-Fc [6] = target: T4, human CD47-Fc; test: direct titration ELISA, FIG. 11A
Description: (§5) FIG. 11A-FIG. 11C. Direct titration ELISA for A-D5.4-derived designer IgGs binding to human, mouse and cyno CD47-Fc proteins. Chimeric anti-CD47 (mVH/mVL), designer A-D5.4-derived clones in human IgG1 null format were titrated (in μg/ml) in a direct binding ELISA against human (FIG. 11A), cyno (FIG. 11B) and mouse (FIG. 11C) CD47-Fc proteins. […] In the figure legends, “IgG1NI” refers to IgG1 null isotype.
(§6) To coat Greiner Bio-One High bind ELISA plates, target proteins were diluted to 1 μg/ml in carbonate buffer and added at 100 μl per well, at 4° C., o/n. Coated plates were washed 3× with PBS pH7.4, blocked with 1% BSA in PBS (380 μl/well) for 1 hr at RT, then washed 3× with PBS-Tween 20 (PBST). CD47 antibodies (100 μl/well; diluted in PBST) were then added and then incubated 1 hr at RT. Plates were then washed 3× with PBST and goat anti-human kappa chain-HRP added (100 μl/well) at RT, for 1 hr. Plates were then washed 3× with PBST and twice with PBS before the addition of 100 μl TMB per well. Reactions were stopped by adding 100 μl 2M H₂SO₄/well and OD was read on a plate reader at 450 nm.

mouse CD47-Fc [7] = target: T1, mouse CD47-Fc; test: direct titration ELISA, FIG. 11C
Description: as §5, §6

mouse CD47-Fc [8] = target: T1, mouse CD47-Fc; test: direct titration ELISA, FIG. 9C
Description: (§7) FIG. 9A-FIG. 9C. Direct titration ELISA for designer IgGs binding to human, mouse and cyno CD47-Fc proteins. Chimeric anti-CD47 (mVH/mVL), designer A-D5-derived clones in human IgG1null format were titrated (in μg/ml) in a direct binding ELISA against human (FIG. 9A), cyno (FIG. 9B) and mouse (FIG. 9C) CD47-Fc proteins. […] In the figure legend, “IgG1NI” refers to IgG1 null isotype.
as §6

human CD47-Fc [9] = target: T4, human CD47-Fc; test: direct titration ELISA, FIG. 9A
Description: as §7, §6

maximum MFI, fold over untransfected CHO-K1 [1]	maximum MFI, fold over untransfected CHO-K1 [2]	OD450 nm (human CD47-Fc [3])	OD450 nm [4]	OD450 nm (mouse CD47-Fc [5])	binding result (human CD47-Fc [6])	binding result (mouse CD47-Fc [7])	Binder	further results
> 10 fold	> 10 fold	> 2 OD450 nm	> 2 OD450 nm	> 1.25 OD450 nm			G-B6 in human IgG1null format (antibody, V domains shown, IgG1null (L234A/L235A/G237A), kappa) VH: EVQLVQSGAEVKKPGESLKISCKGSGYSFTNYYIFWVRQMPGKGLEWIGDINPVNGDTNFSPSFQGQVTISADKSISTAYLQWSSLKASDTAMYYCARGGYTMDKWGQGTLVTVSS VL: DIVMTQSPLSLPVTPGEPASISCRSSQSLVHSNGYTYLHWYLQKPGQSPQLLIYKGSYRASGVPDRFSGSGSGTDFTLKISRVEAEDVGVYYCSQNTQTPRTFGQGTKVEIK	
					binds	binds	A-D5.18 in human IgG1null format (antibody, V domains shown, Designer clone from A-D5.4; IgG1null) VH: EVQLVQSGAEVKKPGESLKISCKGSGYSFTNYYIFWVRQMPGKGLEWMGIINPVDGDTRYSPSFQGQVTISADKSISTAYLQWSSLKASDTAMYYCARGGYTMDRWGQGTLVTVSS VL: DIVMTQSPLSLPVTPGEPASISCRSSQSLLHSNAYNYLHWYLQKPGQSPQLLIYKVSNRLSGVPDRFSGSGSGTDFTLKISRVEAEDVGVYYCFQNTHTPRTFGQGTKVEIK	
					binds	binds	A-D5.15 in human IgG1null format (antibody, V domains shown, Designer clone from A-D5.4; IgG1null) VH: EVQLVQSGAEVKKPGESLKISCKGSGYSFTNYYIFWVRQMPGKGLEWMGIINPVDGDTRYSPSFQGQVTISADKSISTAYLQWSSLKASDTAMYYCARGGYTMDRWGQGTLVTVSS VL: DIVMTQSPLSLPVTPGEPASISCRSSQSLLHSGGYNYLHWYLQKPGQSPQLLIYKVSNRLSGVPDRFSGSGSGTDFTLKISRVEAEDVGVYYCFQNTHTPRTFGQGTKVEIK	
							A-D5.2 in human IgG1null format (antibody, V domains shown, Designer clone from A-D5; IgG1null) VH: EVQLVQSGAEVKKPGESLKISCKGSGYSFTNYYIFWVRQMPGKGLEWMGIINPVDGDTRYNPSFQGQVTISADKSISTAYLQWSSLKASDTAMYYCARGGYTMDRWGQGTLVTVSS VL: DIVMTQSPLSLPVTPGEPASISCRSSQSLLHSNGYTYLHWYLQKPGQSPQLLIYKVSNRLSGVPDRFSGSGSGTDFTLKISRVEAEDVGVYYCFQNTHTPRTFGQGTKVEIK	binding result (mouse CD47-Fc [8]): binds; binding result (human CD47-Fc [9]): binds
					binds	binds	A-D5.12 in human IgG1null format (antibody, V domains shown, Designer clone from A-D5.4; IgG1null) VH: EVQLVQSGAEVKKPGESLKISCKGSGYSFTNYYIFWVRQMPGKGLEWMGIINPVDGDTRYNPSFQGQVTISADKSISTAYLQWSSLKASDTAMYYCARGGYTMDRWGQGTLVTVSS VL: DIVMTQSPLSLPVTPGEPASISCRSSQSLLHSNGYNYLHWYLQKPGQSPQLLIYKVSNRLSGVPDRFSGSGSGTDFTLKISRVEAEDVGVYYCFQNTHTPRTFGQGTKVEIK	
					binds	binds	A-D5.13 in human IgG1null format (antibody, V domains shown, Designer clone from A-D5.4; IgG1null) VH: EVQLVQSGAEVKKPGESLKISCKGSGYSFTNYYIFWVRQMPGKGLEWMGIINPVDGDTRYSPSFQGQVTISADKSISTAYLQWSSLKASDTAMYYCARGGYTMDRWGQGTLVTVSS VL: DIVMTQSPLSLPVTPGEPASISCRSSQSLLHSNGYNYLHWYLQKPGQSPQLLIYKVSNRLSGVPDRFSGSGSGTDFTLKISRVEAEDVGVYYCFQNTHTPRTFGQGTKVEIK	
> 10 fold	> 10 fold	> 2 OD450 nm	> 2 OD450 nm	> 1.25 OD450 nm			D-H3 in human IgG1null format (antibody, V domains shown, IgG1null (L234A/L235A/G237A), kappa) VH: EVQLVQSGAEVKKPGESLKISCKGSGYSFTNYYIFWVRQMPGKGLEWMGDINPVNGDTNYSPSFQGQVTISADKSISTAYLQWSSLKASDTAMYYCARGGYTPDYWGQGTLVTVSS VL: DIVMTQSPLSLPVTPGEPASISCRSSQSLLHSNGYNYLHWYLQKPGQSPQLLIYKGSNRFSGVPDRFSGSGSGTDFTLKISRVEAEDVGVYYCSQNLHVPRTFGQGTKVEIK	
> 10 fold	> 10 fold	> 2 OD450 nm	> 2 OD450 nm	> 1.25 OD450 nm			F-E7 in human IgG1null format (antibody, V domains shown, IgG1null (L234A/L235A/G237A), kappa) VH: EVQLVQSGAEVKKPGESLKISCKGSGYSFTNYYIFWVRQMPGKGLEWMGIINPVNGDTNYNPSFQGQVTISADKSISTAYLQWSSLKASDTAMYYCARGGYTMGKWGQGTLVTVSS VL: DIVMTQSPLSLPVTPGEPASISCRSSQSLVHSNGNTYLDWYLQKPGQSPQLLIYKGSYRFSGVPDRFSGSGSGTDFTLKISRVEAEDVGVYYCSQATHTPRTFGQGTKVEIK	
					binds	binds	A-D5.17 in human IgG1null format (antibody, V domains shown, Designer clone from A-D5.4; IgG1null) VH: EVQLVQSGAEVKKPGESLKISCKGSGYSFTNYYIFWVRQMPGKGLEWMGIINPVDGDTRYSPSFQGQVTISADKSISTAYLQWSSLKASDTAMYYCARGGYTMDRWGQGTLVTVSS VL: DIVMTQSPLSLPVTPGEPASISCRSSQSLLHSTGYNYLHWYLQKPGQSPQLLIYKVSNRLSGVPDRFSGSGSGTDFTLKISRVEAEDVGVYYCFQNTHTPRTFGQGTKVEIK	
					binds	binds	A-D5.14 in human IgG1null format (antibody, V domains shown, Designer clone from A-D5.4; IgG1null) VH: EVQLVQSGAEVKKPGESLKISCKGSGYSFTNYYIFWVRQMPGKGLEWMGIINPVDGDTRYSPSFQGQVTISADKSISTAYLQWSSLKASDTAMYYCARGGYTMDRWGQGTLVTVSS VL: DIVMTQSPLSLPVTPGEPASISCRSSQSLLHSSGYNYLHWYLQKPGQSPQLLIYKVSNRLSGVPDRFSGSGSGTDFTLKISRVEAEDVGVYYCFQNTHTPRTFGQGTKVEIK	
> 10 fold	> 10 fold	> 2 OD450 nm	> 2 OD450 nm	> 1.25 OD450 nm			A-D5 in human IgG1null format (antibody, V domains shown, IgG1null (IgG1 L234A/L235A/G237A), kappa; also called IgG1 A-D5N) VH: EVQLVQSGAEVKKPGESLKISCKGSGYTFTNYYIFWVRQMPGKGLEWMGIINPVDGDTNYNPSFQGQVTISADKSISTAYLQWSSLKASDTAMYYCARGGYTMDRWGQGTLVTVSS VL: DIVMTQSPLSLPVTPGEPASISCRSSQSLLHSNGYTYLHWYLQKPGQSPQLLIYKVSNRLSGVPDRFSGSGSGTDFTLKISRVEAEDVGVYYCFQNTHTPRTFGQGTKVEIK	
